Data published in patent publication US20060292657A1, “Phex substrates and methods using same” (priority 2003, published 2006).

Tests used:
PHEX = target: T1, PHEX (Homo sapiens, UniProt P78562); details: applicants previous observation (17); cited from earlier work
T1 sequence (P78562 1-749): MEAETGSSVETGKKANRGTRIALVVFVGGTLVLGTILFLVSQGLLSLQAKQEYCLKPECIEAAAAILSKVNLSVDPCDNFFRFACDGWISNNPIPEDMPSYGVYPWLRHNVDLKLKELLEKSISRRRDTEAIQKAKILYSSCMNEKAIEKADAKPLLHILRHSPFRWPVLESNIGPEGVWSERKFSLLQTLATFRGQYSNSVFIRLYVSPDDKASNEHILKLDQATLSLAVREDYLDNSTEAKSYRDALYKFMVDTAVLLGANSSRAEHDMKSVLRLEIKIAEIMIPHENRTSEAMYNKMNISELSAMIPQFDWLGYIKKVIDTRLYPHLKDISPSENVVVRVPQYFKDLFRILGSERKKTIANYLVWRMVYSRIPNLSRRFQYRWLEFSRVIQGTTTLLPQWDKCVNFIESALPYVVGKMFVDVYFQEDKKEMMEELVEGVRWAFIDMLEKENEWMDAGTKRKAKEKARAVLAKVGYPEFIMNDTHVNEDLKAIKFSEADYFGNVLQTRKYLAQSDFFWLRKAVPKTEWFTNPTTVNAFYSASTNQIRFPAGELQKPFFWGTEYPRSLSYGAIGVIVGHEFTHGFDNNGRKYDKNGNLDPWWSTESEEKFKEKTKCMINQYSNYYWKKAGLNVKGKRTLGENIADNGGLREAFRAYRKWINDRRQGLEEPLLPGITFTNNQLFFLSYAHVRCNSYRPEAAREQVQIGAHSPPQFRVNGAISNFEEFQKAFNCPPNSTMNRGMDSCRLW

NEP = NEP activity with NEP-specific substrate and inhibitor; assay type: biochemical; details: thiorphan 10^−6 M, 10 μM Abz-DRRL-EDDnp, 30 minutes
Protocol: (§1) FIG. 4 graphically illustrates the activity of PHEX in the presence of NEP-specific substrate and inhibitor. NEP, secPHEX and membrane-bound PHEX (mPHEX) activities were measured after 30 minutes of incubation in presence of either 10 μM Abz-DRRL-EDDnp (SEQ ID NO:8) (A) or 10 μM Abz-GFSDYK(Dnp)-OH (SEQ ID NO:3) (B). Fluorescence detection (AFU) at γem=420 nm and γex=320 nm was determined as described under the heading “Experimental Procedures” below. When present, thiorphan, a NEP-specific inhibitor, was at a concentration of 10^−6 M. Data are a compilation of three different experiments;
The human recombinant secPHEX was obtained following the procedure previously described (17, WO 00/50580). Purified secPHEX concentration was determined using the Bradford method (DC protein assay kit; Bio-Rad, Mississauga, ON, Canada). Membrane-bound recombinant human PHEX was expressed in LLC-PK1 cells (17, (WO 00/50580)) and membranes were prepared essentially as described by Guo et al. (34). Briefly, transfected cells resuspended in lysis buffer (150 mM NaCl, 20 mM Tris.HCl, pH 7.6) were disrupted by sonication. […] Insoluble material was pelleted by centrifugation at 10,000 g for 15 min and protein concentrations of the supernatant determined using the Bradford method described above. PHEX amounts were evaluated by immunoblotting as described previously (17). […]

[1] = target: T2, membrane-bound PHEX (mPHEX) (Homo sapiens, UniProt P78562); experiment: Membrane-bound PHEX activity with NEP-specific substrate and inhibitor; assay type: biochemical; details: thiorphan 10^−6 M, 10 μM substrate, 30 minutes
T2 construct: expressed in transfected cells; host or cells: LLC-PK1 (porcine kidney cells)
Protocol: as §1
(§2) The activities of membrane-bound PHEX and secPHEX were also compared with the NEP-specific substrate Abz-DRRL-EDDnp (SEQ ID NO:8) (46).

secPHEX = target: T3, secPHEX (Homo sapiens, UniProt P78562); experiment: secPHEX activity with NEP-specific substrate and inhibitor; assay type: biochemical; details: thiorphan 10^−6 M, 10 μM substrate, 30 minutes
T3 construct: pure soluble form of PHEX (secPHEX); made in house
T3 sequence (P78562 46-749 limits assumed): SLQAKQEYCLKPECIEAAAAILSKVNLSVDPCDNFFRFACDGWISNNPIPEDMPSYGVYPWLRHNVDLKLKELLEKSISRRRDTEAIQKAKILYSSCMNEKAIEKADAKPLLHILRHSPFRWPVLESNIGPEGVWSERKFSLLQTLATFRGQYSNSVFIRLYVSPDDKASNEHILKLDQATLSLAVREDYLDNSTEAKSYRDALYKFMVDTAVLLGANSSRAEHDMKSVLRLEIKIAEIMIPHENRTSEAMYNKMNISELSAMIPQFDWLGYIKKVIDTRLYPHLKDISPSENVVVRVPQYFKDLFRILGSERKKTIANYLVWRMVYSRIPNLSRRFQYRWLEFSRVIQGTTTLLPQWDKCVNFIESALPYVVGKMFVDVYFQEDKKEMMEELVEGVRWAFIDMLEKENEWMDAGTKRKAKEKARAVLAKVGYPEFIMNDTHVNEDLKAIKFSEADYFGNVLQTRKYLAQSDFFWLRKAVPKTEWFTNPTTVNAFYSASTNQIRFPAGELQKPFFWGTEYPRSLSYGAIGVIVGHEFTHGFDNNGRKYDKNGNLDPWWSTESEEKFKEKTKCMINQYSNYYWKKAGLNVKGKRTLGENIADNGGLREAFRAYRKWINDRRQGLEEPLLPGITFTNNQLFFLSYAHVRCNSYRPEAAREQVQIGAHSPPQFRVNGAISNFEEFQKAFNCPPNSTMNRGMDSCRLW
Protocol: as §1, §2

[2] = substrate: Nc1ccccc1C(=O)NCC(=O)N[C@@H](Cc1ccccc1)C(=O)N[C@@H](CO)C(=O)N[C@@H](CC(=O)O)C(=O)N[C@@H](Cc1ccc(O)cc1)C(=O)N[C@@H](CCCCNc1ccc([N+](=O)[O-])cc1[N+](=O)[O-])C(=O)O; experiment: Hydrolysis by secPHEX added to membranes of vector-transfected LLC-PK1 cells; assay type: biochemical, human; details: other: secPHEX added to membranes from cells transfected with vector alone, 0.01 M Bis-Tris pH 5.5, 150 mM NaCl, 37° C.
Protocol: (§3) FIG. 3 graphically illustrates hydrolysis of Abz-GFSDYK(Dnp)-OH (SEQ ID NO:3) by secPHEX and membrane-bound PHEX. Abz-GFSDYK(Dnp)-OH (SEQ ID NO:3) at a concentration of 10 μM was incubated at 37° C., in 0.01 M Bis-Tris buffer, pH 5.5 with 150 mM NaCl, containing 2,1 μg total proteins from membranes extracted from LLC-PK1 transfected with vector alone (notes as “A” on the figure), or 2,1 μg total proteins from membranes extracted from LLC-PK1 transfected with the membrane-bound form of human PHEX (noted as “□” on the figure); or 2,1 μg total proteins from membranes extracted from LLC-PK1 transfected with vector alone to which 500 ng purified secPHEX were added (noted as “o” on the figure). Fluorescence was monitored every 4 min for a period of 28 min. Amounts of secPHEX or membrane-bound PHEX (mPHEX) in the enzymatic reactions were evaluated by immunoblotting (Inset). Mock: cells transfected with vector alone;
(§4) The human recombinant secPHEX was obtained following the procedure previously described (17, WO 00/50580). Purified secPHEX concentration was determined using the Bradford method (DC protein assay kit; Bio-Rad, Mississauga, ON, Canada). […] Insoluble material was pelleted by centrifugation at 10,000 g for 15 min and protein concentrations of the supernatant determined using the Bradford method described above. PHEX amounts were evaluated by immunoblotting as described previously (17). […]

Abz-DRRL-EDDnp = target: T4, Abz-DRRL-EDDnp
T4 chain: DRRL

Abz-GFSDYK(Dnp)-OH = target: T5, Abz-GFSDYK(Dnp)-OH
T5 chain: GFSDYK

[3] = substrate: Nc1ccccc1C(=O)NCC(=O)N[C@@H](Cc1ccccc1)C(=O)N[C@@H](CO)C(=O)N[C@@H](CC(=O)O)C(=O)N[C@@H](Cc1ccc(O)cc1)C(=O)N[C@@H](CCCCNc1ccc([N+](=O)[O-])cc1[N+](=O)[O-])C(=O)O; experiment: Hydrolysis by membrane-bound PHEX from transfected LLC-PK1 cells; assay type: biochemical, human; details: other: membrane-bound PHEX, 0.01 M Bis-Tris pH 5.5, 150 mM NaCl, 37° C.
Protocol: as §3, §4

substance P
cleavage by PHEX (PHEX): could not cleave

O=C(O)CNC(=O)C(CS)Cc1ccccc1 (stereo not drawn) [thiorphan]
inhibition of NEP activity (NEP): completely inhibited
inhibition of cleavage of Abz-GFSDYK(Dnp)-OH [1]: did not prevent cleavage
inhibition of cleavage of Abz-GFSDYK(Dnp)-OH (secPHEX): did not prevent cleavage

B1: secPHEX (Homo sapiens) (protein)
chain: T3 sequence (P78562 46-749 limits assumed)
notes: pure soluble form of PHEX (secPHEX); made in house
Km [2]: 5 µM

B2: membrane-bound form of human PHEX (Homo sapiens) (protein)
chain: T1 sequence (P78562 1-749)
notes: expressed in transfected cells; host or cells: LLC-PK1 (porcine kidney cells)
substrate hydrolysis (fluorescence) (Abz-DRRL-EDDnp): Neither enzyme hydrolyzed this substrate
Km (Abz-GFSDYK(Dnp)-OH): 5×10^-6 M and 10×10^-6 M, for secPHEX and membrane-bound PHEX, respectively
substrate hydrolysis (fluorescence) (Abz-GFSDYK(Dnp)-OH): degradation of the substrate was observed
Km [3]: 10 µM
